This passage reports Kd results from article PMC10758951 (2023).

No end group written: not given here.

To fix the notation:
B3: 2AcK (peptide)
chain: K(Ac)LLK(Ac)HLYH

Test [1] concerns the target B3. Nature of the test: SPR. In general terms: Surface plasmon resonance follows binding to a sensor surface in real time, without labels.
The target of test [2] is B3. The test can be described thus: ITC. On the technique in general: Isothermal titration calorimetry measures the heat released or taken up as one component is titrated into another.
Test [3] addresses BRD4-BD1 42-168 (Homo sapiens, UniProt O60885). Nature of the test: SPR.

B1: BRD3-BD1 25-147 (protein)
chain: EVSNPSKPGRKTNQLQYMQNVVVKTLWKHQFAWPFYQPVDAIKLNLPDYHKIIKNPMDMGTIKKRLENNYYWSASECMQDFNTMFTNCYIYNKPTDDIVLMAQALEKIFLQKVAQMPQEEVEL
Consider B1, for which the Kd in test [1] stood at 2000 nM; in test [2] it was 10000 nM.

B2: BRD2-BD1 65-194 (protein)
chain: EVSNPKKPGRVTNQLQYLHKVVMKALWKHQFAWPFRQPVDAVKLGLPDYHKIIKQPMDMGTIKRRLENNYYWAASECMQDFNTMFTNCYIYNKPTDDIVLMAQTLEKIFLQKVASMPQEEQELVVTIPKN
With B2, the dissociation constant (Kd) in test [1] is 2000 nM. Molecule B3 returned a Kd in test [3] of 1000 nM.

In general, Kd refers to the equilibrium constant for the complex coming apart.
